From the nanobody polyreactivity screen of Harvey et al. (2022)

Assay: yeast display, Sf9 membrane polyspecificity reagent, FACS + sequencing; frameworks hold sequencing errors
Summary of the method: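 A nanobody's polyreactivity label depends on the gate it was sorted from. Yeast display cells were stained with 10% biotinylated, detergent-solubilized Sf9 membrane reagent for 1 hour at 4 °C, enriched on streptavidin microbeads and sorted by FACS. The low and high (top ~1%) gates were set on anti-HA fluorescence for expression and streptavidin fluorescence for reagent binding.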

| Sequence | polyreactivity (PSR sort gate) |
| --- | --- |
| QVQLVESGGGLVQAGGSLSLSCAASGRTFSSYVMGWYRPAPGNERELVAAITQSSSRTYYADSVKGRFTISRDNAKNTVYLQMNSLKRVYTAVYYCNAALYPYLQYYYWGLGTQVTVSS | low polyreactivity |
| QVQLVESGGGLVQAGGSHRLSCAASGFTFDFYAMGWYRQAPGKERELVAAISKNDGTTYYADSVKGRFTISRDNAKNTVYLLLNRLKPEDSAVYYCAAESGYPVYTYVSSGDYWGQGTQVTGSS | low polyreactivity |
| QVQLVESGGGLVQPGGSLRLSCAASGFIFLGYAMGWYRQAPGKERELVATITWRGGSTYYADSVKGRFTISRDNAKNTVYLQMNSLIPEDTADYYCAATRGWLHSFARDDHDYWGQGTQVTVSS | high polyreactivity |
| QVQLVESGGGLVQAGGSLRLSCAASGRTFPYNAMGWYRQAPGKERELVAGITGGGSTYYADSVKGRFTISRDNAKKTVYLQMNSLKPEDTAVYYCAADRYFLYGTYPDVEFNYWGQGTQVTVSS | high polyreactivity |
| QVQLVESGGGLVQAGGSLRLSCAASGSTFINYAMGWYREAPGKERELVAAISKGGGSTYYADSVKGRFTISRDTAKNTVYLQINSLKPEDTAVYDCARARSGGSHREYYWGQGTQVTVSS | high polyreactivity |
| QVQLVESGGGLFQAGGSLRLTCAASGSTISDYAIGWYRQAPGKERELVAAISTRGGSTYYADSVKGRFTISRDNAKNTVYLQMNSLKPEDTAVYYCAKGGYVPKLEYWGQGTQVTVSS | high polyreactivity |
| QVQLVESGGGLVQAGGSLRLSCAASGLIFADYTMGWYRQAPGKERELVAVITDGDSTYYADSVKGRFTISRDNAKNTVYLQMNSLKPEDTAVYYCAAELDGSNYTLDYWGLGTQVTVSS | low polyreactivity |
| QVQLVESGGGLVQAGGSLRLSCAASGSIFNGYAMGWYRQAPGKVRELVAAISWNGGRTYYADSVKGRFTISRDNAKNTVYLQKNSLKPEDTAVYYCNKVSGYDVDYWGQGTQVTVSS | high polyreactivity |
| QVQLVESGGGLVKAGGSLRLSCAASGSIGSYAMGCYRQAPGKERELVAAISSRGGSTYYADSVKGRFTISRDNAKNTVYLQMNSLKPEDTAFYYCAADYRGRYYSKYYYWGQGTQVTVSS | high polyreactivity |
| QVQLVESGGGLVQAGGSLRLSCAASGRIFSKNAMGWYRPAPGKERELVAAISSGGSTYDADSVKGRFTISRDNAKNTVYLQMNSLKPEDTAVYYCAARKRGYYWGQGTQVTVSS | high polyreactivity |
| QVQLVESGGGLVQAGGSLRLSCAASGRIFNYNVMGWYRQAPGKERELVASISYSSTRTYYADSVKGRFTISRDTAKNTVYLQMNSLKPEDTAVYYCNADYYFSSYRSTFDYWGQGTQVTVSS | low polyreactivity |
| QVQLVESGGGLVQAGGSLRLSCAASGFIFRYYAMGWYRQAPGNERELVAAISYSGGSTYYADSVKGRFTISRDNAKNTVYLQMNSLKPEDTAVYYGAAVLRTRDHPQPNYEYWGQGTQVTVSS | high polyreactivity |
| QVQLVESGGGLVQAGGSLRLSCAASGSTFYKYAMGWYRQAPGKERELVAAITGSGGGTYYADSVKGRFTISRDNGKNTVYLQMNCLKPEDTAVYYCAARRVRSREAYDYWGQGTQVTVSS | high polyreactivity |
| QVQLVESGGGLVQAGGSLRLSCAASGSTFQFNAMGWYRQAPGKEREFVAAITSSAGRTYYADSVKGRFTISRDNAKNTVYLQMNSLKPEDTAVYYCAATFYRRYVDLGYWGQGTQVTVSS | high polyreactivity |
| QEQLVESGGGLVQAGGSLRLSCAASGSIFATYAMGWNRQAPVKERELVAAITSSDGSTNYADSVKGRFTISRDNAKNTVYLLMNSLKPEDTAVYYCAADGTVRSLGRYYHWGQGTQVTVSS | low polyreactivity |
| QVQLVVSGGGLVQAGGSLSLSWAASGRIFSSYAMGWYRQAPGKERELDAAIDRTDSTYYADSVKGRFTISRDNAKNTVYLQMNSLIPEDTAVYYCAVLTYRYQSWGNYYLEYDYWGQGTEVTVSS | low polyreactivity |

| Sequence | polyreactivity (PSR sort gate) |
| --- | --- |
| QVQLVESGGGLVQAGGSLRLSCAASGSTFLSYVMGWYRQAPGKERELVAAINRDGGRTYYADSVKGRFTISRDNAKNTVYLQMNSLKPEDTAVYYCATTSQATSGPRRKLYYYWGQGTQVTVSS | high polyreactivity |
| QVQLVESGGGFVQAGGSLRLSCAASGRTFSYYAMGCYRQAPGKERELVASISGGGRTNYADSVKGRFTISRDNAKNTVYLQMNSLKAEDTAVYYCAARYEVRHTLYNYWGQGTQVTVSS | high polyreactivity |
| QVQLVESGGGLVQAGGSLRLSSAASGRTFPTYTIGGYRQAPGKERELVAAITRGGSTKYADSVKGRFTISRDNAKNTVYLQMNSLKPEDTAVYYCAAVYRYRHSFAYYRHEMDYWGQGTQVTVSS | low polyreactivity |
| QVQLVESGGGLVQAGGSLRLSCGASGSIFVNKAMGWYRPAPGKERELVAAISSRSSRTFYADSVKGRFTISRDHAKNTVYLKMNILKPEDTEVYSCAVKKRAPDGDYWGQGTQVTVSS | high polyreactivity |
| QVQLLESGGGLVQAGGSLRLSCAASGFIICYNGMGWYRQAPGKERELVAGITYSDGSTYYADSVKGRFTISRDNAKITVYLQMNSLKPEDTAVYYCAVDVFYYWAEDYDYWGQGTQVTVSS | low polyreactivity |
| QVQLVESGGGLVQAGGSLRLSCAASGSIFYRNAMGGYRQAPGKERELVAAIAGTGGSTYYADSVKGRFTISRDNAKNTVYLQMNSLKPEDTAVYYCASGVTYRHDYWRQGTQVTVSS | high polyreactivity |
| QVQLVESGGGLVQAGGSLRLSCAASGITFGLYAMGWYRQAPGKEREFVAAISRRGGSTSYADSVKGRFTISRDNAKNTVYLQMNSLKPEDTAVYYCDTSYRRTVGGYTYYWGQGTQVTVSS | high polyreactivity |
| QVQLVESGGGLVQAGGSLRLSCAASGSTFRRNDMGWYRQAPGKERELVAAITSGGITNYADSVKGRFTISRDNAKNTVYLQMNSLKPEDTAVYYCNKDSDLHHYHTEFDYWGQGTQVTVSS | low polyreactivity |
| QVQLVESGGGLVQAGGSLRLSCAASGFIFYLYAMGWYRQAPGKERELVAAIDSGDDTDYADSVKGRFTISRDNAKNTVYLQMNSLKPEDTAVYYCAAGAYWPWGEDYWGQGTQVTVSS | high polyreactivity |
| QVQLVESGGGLVQAGGSLRLSCAASGLIFHQYAMGWYRQAPGKERELVAAITRSGTRTYYADSVKGRFTISRDNAKNTVYLQMNSLKPEDTAVYYCAAADTQGVSMDYWGQGTQVTVSS | high polyreactivity |
| QVQLVESGGGLVQAGGSLRLICAASGLIFWGYAMGWYRQAPGKERELVAAISSSGGSTYYADSVKGRFTISRDNAKNTVYLQINSLKPEDTAVYYCNADYTYYPGYDYWGQGTLVTVSS | low polyreactivity |
| QVQLVESGGGLVQAGGSLRLSCAASGRTFYDNTMGWYRQAPGKERELVAAINWSGTRTYYADSVKGRFTISRDNAKNTVYLQMNSLKPEDTAVYYCAADGPFRRTYGYWGQGTQVTVSS | low polyreactivity |
| QVQLVESGGGLVQAGGSLRLSCAASGRIFQVNAMGWYRQAPGKERELVAAITYSGGTTYYADSVKGRFTISRDNAKNNVYLQMNRLKPEYTAVYYCAAEGYGAQGDPWQYGYEYWGQGTKVTVSS | low polyreactivity |
| QVQLVESGGGLVQAGRSLRLTCAASGRTFRAYTMGWYRQAPGKERDLVAAITSSGGGTYYADSVKGRFTISRDNAKNTVYLQMNSLKPEDTAVYYCNDRKQSYPDKYRRDYWGQGTQVTVSS | low polyreactivity |
| QDHLVESGGGLDQAGGSLRLSCAASGRILGDYAMGWYRQAPGKEREFVAAIDYNGGSTNYADSVKGRFTISRDNAKNTVYLQMNSLKPEDTAVYYCAAPGFPSRNGFGYWGQGTQVTVSS | low polyreactivity |
| QVQLVESGGGLVQAGGSLRLSCAASGSTFYLYAMGWYRQAPGKERELVAAISSGGRTYYADSVKGRFTISRDNAKNTVYLQMNRLKPEDTAVYYCAKVYRRRYYWGQGTQVNVSS | high polyreactivity |
